Measurements as given in patent US20030139374A1 (University of Texas, published 2003).

What was measured:
[1] = system: tissue factor on the surface of HUVEC cells; assay: FACS analysis of tissue factor expression on HUVEC; assay type: cell-based, human; conditions: TNFα 500 U/ml, LPS 10 μg/ml, VEGF 1 nM; 6 h
Protocol: To analyze tissue factor expression on the surface of endothelial cells, HUVEC cells were incubated with TNFα (500 U/ml), LPS (10 μg/ml) or vascular endothelial growth factor (VEGF, 1 nM) alone or in combination for 6 h at 37°. Cells were then detached and stained for surface expression of human tissue factor with a sheep-anti-human tissue factor antibody (Haemochrom, Essen, Germany) and an appropriate FITC-conjugated secondary antibody. Fluorescent cells were detected on a flow cytometer (Becton Dickinson, San Jose, Calif.).

[2] = system: Mouse bEnd.3 endothelial cells; assay: Phosphatidylserine induction by hydrogen peroxide; assay type: cell-based
Protocol: Mouse bEnd.3 endothelial cells were seeded at an initial density of 50,000 cells/well. Twenty-fours later cells were incubated with increasing concentrations of H2O2 (from 10 μM to 500 μM) for 1 hour at 37° C. or left untreated. At the end of the incubation, cells were washed 3 times with PBS containing 0.2% gelatin and fixed with 0.25% glutaraldehyde. Identical wells were either stained with anti-PS IgM or trypsinized and evaluated for viability by the Trypan Blue exclusion test. For the anti-PS staining, after blocking with 2% gelatin for 10 min., cells were incubated with 2 μg/ml of anti-PS antibody, followed by detection with anti-mouse IgM-HRP conjugate.

Mouse endothelial cells = assay: TNFα, cell based two stage coagulation assay
Protocol: Mouse endothelial cells were seeded in 48 well tissue culture plates and allowed to adhere overnight. Cells were stimulated with TNFα at the following concentrations: 500 U/ml 100 U/ml; 20 U/ml; 4 U/ml; 0.8 U/ml 0.16 U/ml; and with medium only.
Endothelial cells were also tested for coagulant activity in a cell based two stage coagulation assay. After incubation with TNFα, cells were washed and incubated with coagulation factor mix (0.5 μg/ml factor VIIa in a mix containing 2.8 μg/ml factor IX, 3.4 μg/ml factor X, 50 μM phospholipids in calcium buffer). The supernatant of wells was transferred into a 96 well ELISA plate. Substrate S2765 was added and Factor Xa generation measured.

bEnd 3 cells = assay: Cell bound coagulation assay on stimulated bEnd 3 endothelial cells (factor Xa generation); assay type: cell-based, murine
[3] = system: HT29 (human colorectal carcinoma) xenograft; assay: HT29 xenograft necrosis after tTF constructs with Factor VIIa; design: species or system BALB/c nu/nu mice; conditions: mouse, in vivo, iv
[4] = system: factor X to Xa conversion; assay: Factor Xa production assay on A20 cells; assay type: cell-based; conditions: Factors II, VII and IX present
A20 lymphoma cells = assay: In vitro coagulation assay on A20 cells with B21-2/10H10 capture antibody; assay type: cell-based, mouse; conditions: for concentration at which plasma coagulated in 50 seconds: bound via B21-2/10H10 to A20 cells; for coagulation times versus tTF219 and Factor VIIa at the same concentrations: Factor VIIa at 1 nM or greater

VEGF
tissue factor expression on the surface of endothelial cells [1]: upregulated

OO [H2O2]
cells with PS detected at the cell surface ([2]; concentrations as low as 20 μM): about 50%
cell viability ([2]; low levels of H2O2 (lower than 100 μM), identical to untreated): 95%

TNFα
fold lower dose for coagulant effect than for VCAM-1 upregulation (Mouse endothelial cells): 125 fold
TNFα at which an increase in comparison to the negative control could be detected (Mouse endothelial cells; coagulation assay): 0.16 U/ml
tissue factor expression on the surface of endothelial cells [1]: upregulated
Factor Xa generation (bEnd 3 cells; stimulation with TNFα (500 U/ml), then incubation with labelled agent (label TNFα = medium only), 0.5 μg/ml factor VIIa): 0.35 nkatS2222
Factor Xa generation due to Factor VIIa production (bEnd 3 cells; stimulation with TNFα (label TNFα = medium only), 2 μg/ml factor VII and 0.01 μg/ml factor VIIa, factor VII-only values subtracted): 1.23 nkatS2222

B1: Factor VIIa: recombinant human Factor VIIa (protein)
chain: ANAFLEELRPGSLERECKEEQCSFEEAREIFKDAERTKLFWISYSDGDQCASSPCQNGGSCKDQLQSYICFCLPAFEGRNCETHKDDQLICVNENGGCEQYCSDHTGTKRSCRCHEGYSLLADGVSCTPTVEYPCGKIPILEKRNASKPQGRIVGGKVCPKGECPWQVLLLVNGAQLCGGTLINTIWVVSAAHCFDKIKNWRNLIAVLGEHDLSEHDGDEQSRRVAQVIIPSTYVPGTTNHDIALLRLHQPVVLTDHVVPLCLPERTFSERTLAFVRFSLVSGWGQLLDRGATALELMVLNVPRLMTQDCLQQSRKVGDSPNITEYMFCAGYSDGSKDSCKGDSGGPHATHYRGTWYLTGIVSWGQGCATVGHFGVYTRVSQYIEWLQKLMRSEPRPGVLLRAPFP
necrosis, average area as percentage of total tumor area [3]: some necrosis

B2: IgG-H6-N′-cys-tTF219: one molecule of IgG linked via SMPT to one or two molecules of H6-N′-cys-tTF219 (conjugate)
chain: HHHHHHAMALVPRGSCGTTNTVAAYNLTWKSTNFKTILEWEPKPVNQVYTVQISTKSGDWKSKCFYTTDTECDLTDEIVKDVKQTYLARVFSYPAGNVESTGSAGEPLYENSPEFTPYLETNLGQPTIQSFEQVGTKVNVTVEDERTLVRRNNTFLSLRDVFGKDLIYTLYYWKSSSSGKKTAKTNTNEFLIDVDKGENYCFSVQAVIPSRTVNRKSTDSPVECMGQEKGEFRE
modifications: left off: large carriers
activity at inducing Xa formation relative to H6-N′-cys-tTF219 (fold less active) [4]: 2 fold
fold less active at inducing coagulation of plasma than tTF219 / unconjugated or monomeric form (A20 lymphoma cells): 5 fold
concentration at which plasma coagulated in 50 seconds (A20 lymphoma cells): 5 nM

B3: Fab′-H6-N′-cys-tTF219: Fab′ fragment disulfide-linked to H6-N′-cys-tTF219 (conjugate)
chain: HHHHHHAMALVPRGSCGTTNTVAAYNLTWKSTNFKTILEWEPKPVNQVYTVQISTKSGDWKSKCFYTTDTECDLTDEIVKDVKQTYLARVFSYPAGNVESTGSAGEPLYENSPEFTPYLETNLGQPTIQSFEQVGTKVNVTVEDERTLVRRNNTFLSLRDVFGKDLIYTLYYWKSSSSGKKTAKTNTNEFLIDVDKGENYCFSVQAVIPSRTVNRKSTDSPVECMGQEKGEFRE
modifications: left off: another chain or arm of the molecule; large carriers
activity at inducing Xa formation relative to H6-N′-cys-tTF219 (fold less active) [4]: as active as

B4: H6-tTF220-cys-C′: tTF with Ile-Cys after amino acid 219, (His)6 tag (protein)
chain: HHHHHHAMALVPRGSGTTNTVAAYNLTWKSTNFKTILEWEPKPVNQVYTVQISTKSGDWKSKCFYTTDTECDLTDEIVKDVKQTYLARVFSYPAGNVESTGSAGEPLYENSPEFTPYLETNLGQPTIQSFEQVGTKVNVTVEDERTLVRRNNTFLSLRDVFGKDLIYTLYYWKSSSSGKKTAKTNTNEFLIDVDKGENYCFSVQAVIPSRTVNRKSTDSPVECMGQEKGEFRE
concentration at which plasma coagulated in 50 seconds (A20 lymphoma cells): 0.5 nM

B5: H6-tTF221-cys-C′: tTF with Ile-Phe-Cys after amino acid 219, (His)6 tag (protein)
chain: HHHHHHAMALVPRGSGTTNTVAAYNLTWKSTNFKTILEWEPKPVNQVYTVQISTKSGDWKSKCFYTTDTECDLTDEIVKDVKQTYLARVFSYPAGNVESTGSAGEPLYENSPEFTPYLETNLGQPTIQSFEQVGTKVNVTVEDERTLVRRNNTFLSLRDVFGKDLIYTLYYWKSSSSGKKTAKTNTNEFLIDVDKGENYCFSVQAVIPSRTVNRKSTDSPVECMGQEKGEFRE
concentration at which plasma coagulated in 50 seconds (A20 lymphoma cells): 0.5 nM
concentration at which plasma coagulated in 50 seconds (A20 lymphoma cells; listed as H6-tTF221-cys-C′ monomer): 1 nM

B6: H6-tTF221-cys-C′ dimer: chemically conjugated disulfide dimer of H6-tTF221-cys-C′ (protein)
chain: HHHHHHAMALVPRGSGTTNTVAAYNLTWKSTNFKTILEWEPKPVNQVYTVQISTKSGDWKSKCFYTTDTECDLTDEIVKDVKQTYLARVFSYPAGNVESTGSAGEPLYENSPEFTPYLETNLGQPTIQSFEQVGTKVNVTVEDERTLVRRNNTFLSLRDVFGKDLIYTLYYWKSSSSGKKTAKTNTNEFLIDVDKGENYCFSVQAVIPSRTVNRKSTDSPVECMGQEKGEFRE
fold less active at inducing coagulation of plasma than tTF219 / unconjugated or monomeric form (A20 lymphoma cells): 4 fold

B7: tTF219 (G164A): tTF219 with amino acid 164 (Gly) replaced by Ala (protein)
chain: GSGTTNTVAAYNLTWKSTNFKTILEWEPKPVNQVYTVQISTKSGDWKSKCFYTTDTECDLTDEIVKDVKQTYLARVFSYPAGNVESTGSAGEPLYENSPEFTPYLETNLGQPTIQSFEQVGTKVNVTVEDERTLVRRNNTFLSLRDVFGKDLIYTLYYWKSSSSAKKTAKTNTNEFLIDVDKGENYCFSVQAVIPSRTVNRKSTDSPVECMGQEKGEFRE
necrosis, average area as percentage of total tumor area [3]: some necrosis
coagulation times versus tTF219 and Factor VIIa at the same concentrations (A20 lymphoma cells): only marginally slower coagulation times

B8: tTF219 (W158R) (protein)
chain: GSGTTNTVAAYNLTWKSTNFKTILEWEPKPVNQVYTVQISTKSGDWKSKCFYTTDTECDLTDEIVKDVKQTYLARVFSYPAGNVESTGSAGEPLYENSPEFTPYLETNLGQPTIQSFEQVGTKVNVTVEDERTLVRRNNTFLSLRDVFGKDLIYTLYYRKSSSSGKKTAKTNTNEFLIDVDKGENYCFSVQAVIPSRTVNRKSTDSPVECMGQEKGEFRE
coagulation times versus tTF219 and Factor VIIa at the same concentrations (A20 lymphoma cells): only marginally slower coagulation times

B9: H6-tTF219-cys-C′: tTF219 with (His)6 tag and a Cys after amino acid 219 (protein)
chain: HHHHHHAMALVPRGSGTTNTVAAYNLTWKSTNFKTILEWEPKPVNQVYTVQISTKSGDWKSKCFYTTDTECDLTDEIVKVKQTYLARVFSYPAGNVESTGSAGEPLYENSPEFTPYLETNLGQPTIQSFEQVGTKVNVTVEDRTLVRRNNTFLSLRDVFGKDLIYTLYYWKSSSSGKKTAKTNTNEFLIDVDKGENYCFSVQAVIPSRTVNRKSTDSPVECMGQEKGEFREC
concentration at which plasma coagulated in 50 seconds (A20 lymphoma cells): 3 nM
